# Biological target: low-density lipoprotein receptor-related protein 1 (LRP1), full-length, purified from human placenta (human) (UniProt Q07954)
# Assay: SPR; Biacore 3000; receptor amine-coupled to CM5 chip; ligand flowed in HBS-P (0.01 M HEPES pH 7.4, 0.15 M NaCl, 0.005% P20) with 1 mM CaCl2, 10 ul/min, 25 C; kinetic fit to a 1:1 Langmuir model
# Chain of low-density lipoprotein receptor-related protein 1 (LRP1), full-length, purified from human placenta (human) (Q07954 20-4544): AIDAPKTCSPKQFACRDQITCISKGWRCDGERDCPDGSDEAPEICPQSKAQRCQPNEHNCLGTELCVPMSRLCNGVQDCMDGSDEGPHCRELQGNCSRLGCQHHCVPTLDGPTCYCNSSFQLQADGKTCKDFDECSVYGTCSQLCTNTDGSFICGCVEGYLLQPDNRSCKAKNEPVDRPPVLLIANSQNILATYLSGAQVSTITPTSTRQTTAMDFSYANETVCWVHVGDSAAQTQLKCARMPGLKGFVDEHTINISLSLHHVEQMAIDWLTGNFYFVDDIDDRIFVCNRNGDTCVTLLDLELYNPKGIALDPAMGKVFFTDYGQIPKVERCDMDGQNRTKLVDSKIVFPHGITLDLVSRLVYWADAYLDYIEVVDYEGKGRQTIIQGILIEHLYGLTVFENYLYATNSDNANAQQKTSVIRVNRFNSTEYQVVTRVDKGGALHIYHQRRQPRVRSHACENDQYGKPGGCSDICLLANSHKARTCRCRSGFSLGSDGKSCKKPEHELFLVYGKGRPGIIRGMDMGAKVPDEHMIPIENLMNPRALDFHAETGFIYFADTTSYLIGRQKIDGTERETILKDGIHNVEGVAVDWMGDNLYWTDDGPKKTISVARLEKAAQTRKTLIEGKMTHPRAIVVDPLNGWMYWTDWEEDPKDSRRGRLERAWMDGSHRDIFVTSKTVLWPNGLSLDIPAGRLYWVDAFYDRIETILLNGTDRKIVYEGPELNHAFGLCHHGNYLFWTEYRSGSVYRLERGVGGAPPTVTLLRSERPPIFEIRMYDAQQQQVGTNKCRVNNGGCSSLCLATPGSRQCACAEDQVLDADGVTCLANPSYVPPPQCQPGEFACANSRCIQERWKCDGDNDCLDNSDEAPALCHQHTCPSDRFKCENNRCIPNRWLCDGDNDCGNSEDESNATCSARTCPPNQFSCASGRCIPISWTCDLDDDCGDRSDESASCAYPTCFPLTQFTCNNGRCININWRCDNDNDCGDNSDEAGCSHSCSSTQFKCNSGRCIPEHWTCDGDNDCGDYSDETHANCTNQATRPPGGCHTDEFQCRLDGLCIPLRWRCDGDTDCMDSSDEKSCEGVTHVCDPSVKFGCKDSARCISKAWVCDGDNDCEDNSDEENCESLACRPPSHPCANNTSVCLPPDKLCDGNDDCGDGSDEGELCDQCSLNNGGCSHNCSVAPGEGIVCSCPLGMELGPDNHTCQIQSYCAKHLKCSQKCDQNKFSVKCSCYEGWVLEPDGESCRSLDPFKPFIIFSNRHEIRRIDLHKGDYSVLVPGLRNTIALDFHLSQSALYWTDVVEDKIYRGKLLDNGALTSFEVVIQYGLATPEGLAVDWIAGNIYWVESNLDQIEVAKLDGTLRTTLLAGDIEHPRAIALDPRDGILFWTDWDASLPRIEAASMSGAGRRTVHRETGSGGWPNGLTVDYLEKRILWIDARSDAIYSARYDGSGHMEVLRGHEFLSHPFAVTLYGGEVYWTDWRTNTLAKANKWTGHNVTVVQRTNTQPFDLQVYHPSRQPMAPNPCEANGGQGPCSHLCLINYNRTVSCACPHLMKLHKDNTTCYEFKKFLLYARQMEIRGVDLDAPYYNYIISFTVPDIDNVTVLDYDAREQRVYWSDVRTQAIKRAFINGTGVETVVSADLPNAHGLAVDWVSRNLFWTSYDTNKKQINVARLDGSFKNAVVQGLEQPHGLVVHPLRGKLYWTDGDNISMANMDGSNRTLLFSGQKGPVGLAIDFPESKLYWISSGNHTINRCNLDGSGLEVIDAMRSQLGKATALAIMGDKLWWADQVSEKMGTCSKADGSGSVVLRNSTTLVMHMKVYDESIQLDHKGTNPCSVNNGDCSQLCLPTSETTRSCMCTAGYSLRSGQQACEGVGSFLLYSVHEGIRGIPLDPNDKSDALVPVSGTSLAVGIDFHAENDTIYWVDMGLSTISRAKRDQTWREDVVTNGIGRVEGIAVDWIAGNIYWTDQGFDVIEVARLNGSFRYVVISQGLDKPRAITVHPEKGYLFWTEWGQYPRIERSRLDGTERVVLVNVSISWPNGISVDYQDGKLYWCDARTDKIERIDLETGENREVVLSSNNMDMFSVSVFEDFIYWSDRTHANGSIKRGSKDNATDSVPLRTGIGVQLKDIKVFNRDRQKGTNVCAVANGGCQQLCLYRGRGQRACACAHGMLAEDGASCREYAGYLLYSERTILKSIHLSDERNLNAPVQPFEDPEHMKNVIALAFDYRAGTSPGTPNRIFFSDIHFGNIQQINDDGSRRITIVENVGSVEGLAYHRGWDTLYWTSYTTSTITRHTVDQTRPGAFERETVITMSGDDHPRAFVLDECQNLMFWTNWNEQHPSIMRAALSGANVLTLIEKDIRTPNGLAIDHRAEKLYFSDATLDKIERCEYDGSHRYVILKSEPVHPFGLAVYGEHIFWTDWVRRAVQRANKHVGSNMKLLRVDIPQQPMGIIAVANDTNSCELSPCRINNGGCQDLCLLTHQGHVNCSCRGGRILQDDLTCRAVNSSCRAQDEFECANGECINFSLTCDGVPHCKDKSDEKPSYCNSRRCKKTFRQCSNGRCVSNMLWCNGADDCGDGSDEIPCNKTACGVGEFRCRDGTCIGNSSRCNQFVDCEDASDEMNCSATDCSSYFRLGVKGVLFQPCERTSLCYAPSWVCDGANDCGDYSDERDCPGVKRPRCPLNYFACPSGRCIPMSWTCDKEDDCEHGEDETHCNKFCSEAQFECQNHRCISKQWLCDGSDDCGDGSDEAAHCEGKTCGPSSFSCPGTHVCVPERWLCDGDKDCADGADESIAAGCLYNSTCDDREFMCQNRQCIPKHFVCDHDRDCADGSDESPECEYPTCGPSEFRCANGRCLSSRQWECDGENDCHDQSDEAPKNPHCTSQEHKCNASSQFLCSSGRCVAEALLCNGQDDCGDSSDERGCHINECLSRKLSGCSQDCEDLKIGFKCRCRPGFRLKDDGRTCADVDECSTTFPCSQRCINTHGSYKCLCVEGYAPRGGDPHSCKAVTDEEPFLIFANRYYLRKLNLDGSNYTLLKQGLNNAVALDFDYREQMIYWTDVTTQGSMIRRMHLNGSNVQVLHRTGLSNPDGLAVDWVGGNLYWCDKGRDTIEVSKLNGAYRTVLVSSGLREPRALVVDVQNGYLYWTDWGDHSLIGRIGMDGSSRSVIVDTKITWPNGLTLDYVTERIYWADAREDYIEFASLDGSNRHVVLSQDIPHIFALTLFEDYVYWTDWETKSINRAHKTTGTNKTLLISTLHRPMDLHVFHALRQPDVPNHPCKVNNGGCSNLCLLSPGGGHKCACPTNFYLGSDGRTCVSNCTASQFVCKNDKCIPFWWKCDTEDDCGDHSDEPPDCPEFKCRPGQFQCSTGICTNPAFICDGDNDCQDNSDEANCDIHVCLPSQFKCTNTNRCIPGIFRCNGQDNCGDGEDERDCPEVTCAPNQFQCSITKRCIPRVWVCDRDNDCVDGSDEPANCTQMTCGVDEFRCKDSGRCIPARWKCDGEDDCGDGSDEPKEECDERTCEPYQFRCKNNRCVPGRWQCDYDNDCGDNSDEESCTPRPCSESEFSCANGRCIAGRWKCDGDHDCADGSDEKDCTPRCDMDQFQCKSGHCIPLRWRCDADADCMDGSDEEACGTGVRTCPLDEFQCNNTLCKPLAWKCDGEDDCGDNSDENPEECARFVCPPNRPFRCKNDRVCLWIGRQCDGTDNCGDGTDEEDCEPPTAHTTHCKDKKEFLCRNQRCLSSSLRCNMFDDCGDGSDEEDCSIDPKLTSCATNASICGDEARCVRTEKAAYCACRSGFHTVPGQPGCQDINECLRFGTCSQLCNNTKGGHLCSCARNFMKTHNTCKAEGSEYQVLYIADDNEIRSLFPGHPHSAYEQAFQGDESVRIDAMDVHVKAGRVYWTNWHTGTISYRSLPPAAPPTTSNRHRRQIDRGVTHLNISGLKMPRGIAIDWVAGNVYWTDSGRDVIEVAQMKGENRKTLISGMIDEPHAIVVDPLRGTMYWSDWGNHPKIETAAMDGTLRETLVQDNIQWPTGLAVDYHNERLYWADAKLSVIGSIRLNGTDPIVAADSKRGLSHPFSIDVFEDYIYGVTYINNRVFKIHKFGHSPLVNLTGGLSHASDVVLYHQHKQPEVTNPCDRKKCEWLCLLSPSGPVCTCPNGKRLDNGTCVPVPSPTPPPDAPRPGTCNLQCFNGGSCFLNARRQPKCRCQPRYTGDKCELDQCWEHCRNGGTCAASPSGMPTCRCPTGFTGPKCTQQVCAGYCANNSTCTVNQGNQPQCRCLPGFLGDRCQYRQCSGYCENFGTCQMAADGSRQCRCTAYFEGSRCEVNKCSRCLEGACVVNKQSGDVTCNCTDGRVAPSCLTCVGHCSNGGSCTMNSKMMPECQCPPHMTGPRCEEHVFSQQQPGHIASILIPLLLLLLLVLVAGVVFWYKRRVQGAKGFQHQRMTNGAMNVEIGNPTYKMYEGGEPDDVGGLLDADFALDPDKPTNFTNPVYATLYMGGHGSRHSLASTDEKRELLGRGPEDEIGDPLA
substance,measurement,value
"SARS-CoV-2 trimeric spike protein, stabilized in prefusion conformation (from UniProt P0DTC2 14-1273) (natural protein)",Kd,0.072 µM
same,koff,0.00034 s⁻¹
same,kon,4800 M⁻¹ s⁻¹

# From publication PMC12192683
